Data from article PMC6453860.

Assays:
Settings in all cases: glycan lost; control: wild-type ASGP-R1 in U87 cells
[1] = SMN2 exon 7 inclusion RT-PCR, 0-30 µM dose response
[2] = Western blot quantification normalised to tubulin
[3] = SMN2 exon 7 inclusion RT-PCR, single 30 nM dose

B1: ASGP-R1 H1a (asialoglycoprotein receptor 1): N79Q (protein)
parent chain: MTKEYQDLQHLDNEESDHHQLRKGPPPPQPLLQRLCSGPRLLLLSLGLSLLLLVVVCVIGSQNSQLQEELRGLRETFSNFTASTEAQVKGLSTQGGNVGRKMKSLESQLEKQQKDLSEDHSSLLLHVKQFVSDLRSLSCQMAALQGNGSERTCCPVNWVEHERSCYWFSRSGKAWADADNYCRLEDAHLVVVTSWEEQKFVQHHIGPVNTWMGLHDQNGPWKWVDGTDYETGFKNWRPEQPDDWYGHGLGGGEDCAHFTDDGRWNDDVCQRPYRWVCETELDKASQEPPLL
For B1, the “other: receptor-mediated GN3-ASO uptake and activity, fold_change” value [1] was “no change”, the expression_or_secretion [2] was “no change” and the “other: receptor-mediated GN3-ASO uptake and activity” value [3] was “no change”.

B2: ASGP-R1 H1a (asialoglycoprotein receptor 1): N79Q/N147Q (protein)
parent chain: MTKEYQDLQHLDNEESDHHQLRKGPPPPQPLLQRLCSGPRLLLLSLGLSLLLLVVVCVIGSQNSQLQEELRGLRETFSNFTASTEAQVKGLSTQGGNVGRKMKSLESQLEKQQKDLSEDHSSLLLHVKQFVSDLRSLSCQMAALQGNGSERTCCPVNWVEHERSCYWFSRSGKAWADADNYCRLEDAHLVVVTSWEEQKFVQHHIGPVNTWMGLHDQNGPWKWVDGTDYETGFKNWRPEQPDDWYGHGLGGGEDCAHFTDDGRWNDDVCQRPYRWVCETELDKASQEPPLL
For B2, the expression_or_secretion [2] was “no change” and the “other: receptor-mediated GN3-ASO uptake and activity” value [3] was “no change”.

B3: ASGP-R1 H1a (asialoglycoprotein receptor 1): N147Q (protein)
parent chain: MTKEYQDLQHLDNEESDHHQLRKGPPPPQPLLQRLCSGPRLLLLSLGLSLLLLVVVCVIGSQNSQLQEELRGLRETFSNFTASTEAQVKGLSTQGGNVGRKMKSLESQLEKQQKDLSEDHSSLLLHVKQFVSDLRSLSCQMAALQGNGSERTCCPVNWVEHERSCYWFSRSGKAWADADNYCRLEDAHLVVVTSWEEQKFVQHHIGPVNTWMGLHDQNGPWKWVDGTDYETGFKNWRPEQPDDWYGHGLGGGEDCAHFTDDGRWNDDVCQRPYRWVCETELDKASQEPPLL
For B3, the “other: receptor-mediated GN3-ASO uptake and activity, fold_change” value [1] was “no change”, the expression_or_secretion [2] was “no change” and the “other: receptor-mediated GN3-ASO uptake and activity” value [3] was “no change”.
